From the supplement of paper PMC5998384 come the findings set out here.

Series [1] relates to HeLa Kyoto. In words: thermal stability score vs G1/S (z-score of summed log2 fold changes over temperatures); higher = more thermally stable than in G1/S.
Series [2] concerns HeLa Kyoto. In words: solubility change mitosis vs G1/S (difference of NP-40 vs SDS log2 ratios) (log2 ratio difference); higher = more soluble in mitosis.
The test system of series [3] is HeLa Kyoto. In words: melting temperature (median over replicates), in situ; higher = more thermally stable.
Series [4] concerns HeLa Kyoto. In words: solubility in G1/S (NP-40 vs SDS abundance) (log2 ratio); higher = more soluble. The following applies: cell cycle stage: G1/S.
[5] abbreviates: cell cycle stage: early G1 (4.5 h after nocodazole release).
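Throughout, for melting temperature (median over replicates), in situ: HeLa Kyoto cells synchronized by double thymidine or nocodazole block, proteins quantified by TMT10plex mass spectrometry, three independent biological replicates.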
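Throughout, for solubility change mitosis vs G1/S (difference of NP-40 vs SDS log2 ratios): synchronized HeLa Kyoto cells (double thymidine block for G1/S, nocodazole release for mitosis), protein amounts in NP-40 versus SDS lysates quantified by mass spectrometry, three biological replicates.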
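Throughout, for solubility in G1/S (NP-40 vs SDS abundance): HeLa Kyoto cells arrested at G1/S by double thymidine block, proteins quantified by TMT10plex mass spectrometry in mild NP-40 versus SDS extracts, three biological replicates.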
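Throughout, for thermal stability score vs G1/S (z-score of summed log2 fold changes over temperatures): synchronized HeLa Kyoto cells, proteins quantified by TMT10plex mass spectrometry, three biological replicates, mitosis taken 0.5 h after nocodazole release, G1/S directly after double thymidine block.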

Chain of MCTP2 (chain, as listed by the source): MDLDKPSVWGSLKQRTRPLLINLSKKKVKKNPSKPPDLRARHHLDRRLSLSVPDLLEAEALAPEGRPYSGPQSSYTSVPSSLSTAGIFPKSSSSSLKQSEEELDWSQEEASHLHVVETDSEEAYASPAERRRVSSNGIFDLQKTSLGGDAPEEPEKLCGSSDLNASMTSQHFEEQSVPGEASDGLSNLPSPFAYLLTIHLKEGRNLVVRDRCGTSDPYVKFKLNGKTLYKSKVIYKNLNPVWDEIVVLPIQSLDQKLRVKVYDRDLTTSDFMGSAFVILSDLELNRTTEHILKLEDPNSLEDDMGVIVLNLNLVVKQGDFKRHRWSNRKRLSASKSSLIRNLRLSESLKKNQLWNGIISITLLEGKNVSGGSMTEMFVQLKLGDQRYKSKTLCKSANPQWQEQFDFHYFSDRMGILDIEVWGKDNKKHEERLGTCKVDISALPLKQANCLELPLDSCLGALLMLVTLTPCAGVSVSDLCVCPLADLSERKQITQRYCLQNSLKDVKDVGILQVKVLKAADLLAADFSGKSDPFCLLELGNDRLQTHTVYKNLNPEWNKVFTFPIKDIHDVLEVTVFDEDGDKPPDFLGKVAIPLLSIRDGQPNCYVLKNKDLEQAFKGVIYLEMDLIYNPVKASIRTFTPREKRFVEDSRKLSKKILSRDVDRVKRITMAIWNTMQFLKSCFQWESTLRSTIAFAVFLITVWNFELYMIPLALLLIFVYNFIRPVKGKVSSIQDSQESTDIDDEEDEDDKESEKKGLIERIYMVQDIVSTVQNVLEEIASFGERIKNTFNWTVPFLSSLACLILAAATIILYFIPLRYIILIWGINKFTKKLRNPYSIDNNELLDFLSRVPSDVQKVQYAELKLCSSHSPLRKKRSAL

“MAYPGHPGAGGGYYPGGYGGAPGGPAFPGQTQDPLYGYFAAVAGQDGQIDADELQRCLTQSGIAGGYKPFNLETCRLMVSMLDRDMSGTMGFNEFKELWAVLNGWRQHFISFDTDRSGTVDPQELQKALTTMGFRLSPQAVNSIAKRYSTNGKITFDDYIACCVKLRALTDSFRRRDTAQQGVVNFPYDDFIQCVMSV [SRI]”: the thermal stability score with HeLa Kyoto [1] (setting [5]) is -2.31; in the series with HeLa Kyoto [1] (cell cycle stage: mitosis) it was -2.35. Further, the “solubility change mitosis (log2)” value in the series with HeLa Kyoto [2] was found to be 0.318. Besides, the melting temperature with HeLa Kyoto [3] (cell cycle stage: G1/S) amounted to 52.8 °C; with HeLa Kyoto [3] (cell cycle stage: mitosis) it was 52.2 °C. In the series with HeLa Kyoto [4], the “solubility in G1/S (log2)” value was found to be 0.028.

“MCAAQMPPLAHIFRGTFVHSTWTCPMEVLRDHLLGVSDSGKIVFLEEASQQEKLAKEWCFKPCEIRELSHHEFFMPGLVDTHIHASQYSFAGSSIDLPLLEWLTKYTFPAEHRFQNIDFAEEVYTRVVRRTLKNGTTTACYFATIHTDSSLLLADITDKFGQRAFVGKVCMDLNDTFPEYKETTEESIKETERFVSEMLQKNYSRVKPIVTPRFSLSCSETLMGELGNIAKTRDLHIQSHISENRDEVEAVKNLYPSYKNYTSVYDKNNLLTNKTVMAHGCYLSAEELNVFHERGASIAHCPNSNLSLSSGFLNVLEVLKHEVKIGLGTDVAGGYSYSMLDAIRRAVMVSNILLINKVNEKSLTLKEVFRLATLGGSQALGLDGEIGNFEVGKEFDAILINPKASDSPIDLFYGDFFGDISEAVIQKFLYLGDDRNIEEVYVGGKQVVPFSSSV [GDA]”: the figures for the thermal stability score in the series with HeLa Kyoto [1] (setting [5]) and with HeLa Kyoto [1] (cell cycle stage: mitosis) were -1.49 and -2.29, respectively. The “solubility change mitosis (log2)” value in the series with HeLa Kyoto [2] was -0.0926. The figures for the melting temperature with HeLa Kyoto [3] (cell cycle stage: G1/S) and in the series with HeLa Kyoto [3] (cell cycle stage: mitosis) were 61.9 °C and 63.7 °C, respectively. Besides, in the series with HeLa Kyoto [4], the “solubility in G1/S (log2)” value was 0.0143.

For “MCDLRRPAAGGMMDLAYVCEWEKWSKSTHCPSVPLACAWSCRNLIAFTMDLRSDDQDLTRMIHILDTEHPWDLHSIPSEHHEAITCLEWDQSGSRLLSADADGQIKCWSMADHLANSWESSVGSLVEGDPIVALSWLHNGVKLALHVEKSGASSFGEKFSRVKFSPSLTLFGGKPMEGWIAVTVSGLVTVSLLKPSGQVLTSTESLCRLRGRVALADIAFTGGGNIVVATADGSSASPVQFYKVCVSVVSEKCRIDTEILPSLFMRCTTDLNRKDKFPAITHLKFLARDMSEQVLLCASSQTSSIVECWSLRKEGLPVNNIFQQISPVVGDKQPTILKWRILSATNDLDRVSAVALPKLPISLTNTDLKVASDTQFYPGLGLALAFHDGSVHIVHRLSLQTMAVFYSSAAPRPVDEPAMKRPRTAGPAVHLKAMQLSWTSLALVGIDSHGKLSVLRLSPSMGHPLEVGLALRHLLFLLEYCMVTGYDWWDILLHVQPSMVQSLVEKLHEEYTRQTAALQQVLSTRILAMKASLCKLSPCTVTRVCDYHTKLFLIAISSTLKSLLRPHFLNTPDKSPGDRLTEICTKITDVDIDKVMINLKTEEFVLDMNTLQALQQLLQWVGDFVLYLLASLPNQGSLLRPGHSFLRDGTSLGMLRELMVVIRIWGLLKPSCLPVYTATSDTQDSMSLLFRLLTKLWICCRDEGPASEPDEALVDECCLLPSQLLIPSLDWLPASDGLVSRLQPKQPLRLQFGRAPTLPGSAATLQLDGLARAPGQPKIDHLRRLHLGACPTEECKACTRCGCVTMLKSPNRTTAVKQWEQRWIKNCLAVEGRGPDACVTSRASEEAPAFVQLGPQSTHHSPRTPRSLDHLHPEDRP [MED16]”, the thermal stability score came out at 0.307 in the series with HeLa Kyoto [1] (setting [5]) and 0.64 in the series on HeLa Kyoto [1] (cell cycle stage: mitosis). The “solubility change mitosis (log2)” value in the series with HeLa Kyoto [2] is -0.185. The melting temperature in the series on HeLa Kyoto [3] (cell cycle stage: G1/S) is 52.2 °C; with HeLa Kyoto [3] (cell cycle stage: mitosis), 52 °C. Besides, the “solubility in G1/S (log2)” value in the series with HeLa Kyoto [4] was -0.121.

Take “MCGNNMSTPLPAIVPAARKATAAVIFLHGLGDTGHGWAEAFAGIRSSHIKYICPHAPVRPVTLNMNVAMPSWFDIIGLSPDSQEDESGIKQAAENIKALIDQEVKNGIPSNRIILGGFSQGGALSLYTALTTQQKLAGVTALSCWLPLRASFPQGPIGGANRDISILQCHGDCDPLVPLMFGSLTVEKLKTLVNPANVTFKTYEGMMHSSCQQEMMDVKQFIDKLLPPID [LYPLA1]”: the thermal stability score in the series with HeLa Kyoto [1] (setting [5]) was 0.0704; in the series on HeLa Kyoto [1] (cell cycle stage: mitosis) it was -0.796. In addition, in the series with HeLa Kyoto [2], the “solubility change mitosis (log2)” value stood at 0.23. In addition, the melting temperature is 54.6 °C with HeLa Kyoto [3] (cell cycle stage: G1/S) and 56.2 °C in the series with HeLa Kyoto [3] (cell cycle stage: mitosis). Besides, the “solubility in G1/S (log2)” value with HeLa Kyoto [4] was found to be 0.619.

With MCM3AP, the thermal stability score was -0.00305 with HeLa Kyoto [1] (setting [5]) and -0.291 with HeLa Kyoto [1] (cell cycle stage: mitosis). For the same substance, the “solubility change mitosis (log2)” value in the series with HeLa Kyoto [2] stood at 0.655. In addition, the melting temperature in the series on HeLa Kyoto [3] (cell cycle stage: G1/S) is 48.7 °C; in the series with HeLa Kyoto [3] (cell cycle stage: mitosis), 49.5 °C. The “solubility in G1/S (log2)” value with HeLa Kyoto [4] was -0.867.

On to “MCSLGLFPPPPPRGQVTLYEHNNELVTGSSYESPPPDFRGQWINLPVLQLTKDPLKTPGRLDHGTRTAFIHHREQVWKRCINIWRDVGLFGVLNEIANSEEEVFEWVKTASGWALALCRWASSLHGSLFPHLSLRSEDLIAEFAQVTNWSSCCLRVFAWHPHTNKFAVALLDDSVRVYNASSTIVPSLKHRLQRNVASLAWKPLSASVLAVACQSCILIWTLDPTSLSTRPSSGCAQVLSHPGHTPVTSLAWAPSGGRLLSASPVDAAIRVWDVSTETCVPLPWFRGGGVTNLLWSPDGSKILATTPSAVFRVWEAQMWTCERWPTLSGRCQTGCWSPDGSRLLFTVLGEPLIYSLSFPERCGEGKGCVGGAKSATIVADLSETTIQTPDGEERLGGEAHSMVWDPSGERLAVLMKGKPRVQDGKPVILLFRTRNSPVFELLPCGIIQGEPGAQPQLITFHPSFNKGALLSVGWSTGRIAHIPLYFVNAQFPRFSPVLGRAQEPPAGGGGSIHDLPLFTETSPTSAPWDPLPGPPPVLPHSPHSHL [AAAS]”, for which the thermal stability score in the series with HeLa Kyoto [1] (setting [5]) is -4.87; in the series on HeLa Kyoto [1] (cell cycle stage: mitosis) it was -7.02. Besides, the “solubility change mitosis (log2)” value in the series with HeLa Kyoto [2] was determined as 0.0315. In addition, the melting temperature turned out to be 53.6 °C with HeLa Kyoto [3] (cell cycle stage: G1/S) and 51 °C in the series on HeLa Kyoto [3] (cell cycle stage: mitosis). The “solubility in G1/S (log2)” value with HeLa Kyoto [4] was -0.296.

As to MCTP2, the thermal stability score is 0.55 in the series with HeLa Kyoto [1] (setting [5]) and 0.479 in the series with HeLa Kyoto [1] (cell cycle stage: mitosis). Moreover, the “solubility change mitosis (log2)” value in the series on HeLa Kyoto [2] was -0.136. The melting temperature with HeLa Kyoto [3] (cell cycle stage: G1/S) was determined as 50.2 °C; with HeLa Kyoto [3] (cell cycle stage: mitosis), 50.1 °C. In addition, the “solubility in G1/S (log2)” value in the series on HeLa Kyoto [4] was -0.274.
